# From patent US6808893 (Johns Hopkins, dated 2004)
# T1: EAAT4, full-length glutamate transporter (rat, UniProt O35921 1-561)
# T1 sequence (looked up): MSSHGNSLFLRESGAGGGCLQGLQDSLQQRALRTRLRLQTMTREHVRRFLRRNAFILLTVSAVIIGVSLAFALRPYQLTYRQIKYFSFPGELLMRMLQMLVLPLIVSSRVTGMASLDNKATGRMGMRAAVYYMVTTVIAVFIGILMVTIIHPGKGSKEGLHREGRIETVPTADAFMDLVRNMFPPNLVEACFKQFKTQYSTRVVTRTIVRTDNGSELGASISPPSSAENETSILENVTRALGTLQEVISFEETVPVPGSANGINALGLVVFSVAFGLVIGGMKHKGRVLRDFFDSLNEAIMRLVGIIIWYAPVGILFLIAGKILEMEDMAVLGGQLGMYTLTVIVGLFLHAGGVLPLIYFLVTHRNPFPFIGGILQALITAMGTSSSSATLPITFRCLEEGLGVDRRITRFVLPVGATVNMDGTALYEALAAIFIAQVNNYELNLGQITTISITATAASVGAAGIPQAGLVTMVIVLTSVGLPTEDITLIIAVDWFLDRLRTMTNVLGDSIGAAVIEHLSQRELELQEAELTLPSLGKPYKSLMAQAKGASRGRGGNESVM
# B1: GTRAP4-48 (glutamate transporter 4 associated protein), full-length (other)
# chain: MSIRLPHSIDRSASKKQSHLSSPIASWLSSLSSLGDSTPERTSPSHHRQPSDTSETTAGLVQRCVIIQKDQHGFGFTVSGDRIVLVQSVRPGGAAMKAGVKEGDRIIKVNGTMVTNSSHLEVVKLIKSGAYAALTLLGSSPPSVGVSGLQQNPSVAGVLRVNPIIPPPPPPPPLPPPQHITGPKPLQDPEVQKHATQILWNMLRQEEEELQDILPPCGETSQRTCEGRLSVDSQEADSGLDSGTERFPSISESLMNRNSVLSDPGLDSPQTSPVILARVAQHHRRQGSDAALLPLNHQGIDQSPKPLIIGPEEDYDPGYFNNESDIIFQDLEKLKSHPAYLVVFLRYILSQADPGPLLFYLCSEVYQQTNPKDSRSLGKDIWNIFLEKNAPLRVKIPEMLQAEIDLRLRNNEDPRNVLCEAQEAVMLEIQEQINDYRSKRTLGLGSLYGENDLLGLDGDPLRERQMAEKQLAALGDILSKYEEDRSAPMDFAVNTFMSHAGIRLRESRSSCTAEKTQSAPDKDKWLPFFPKTKKQSSNSKKEKDALEDKKRNPILRYIGKPKSSSQSIKPGNVRNIIQHFENSHQYDVPEPGTQRLSTGSFPEDLLESDSSRSEIRLGRSGSLKGREEMKRSRKAENVPRPRSDVDMDAAAEAARLHQSASSSASSLSTRSLENPTPPFTPKMGRRSIESPNLGFCTDVILPHLLEDDLGQLSDLEPEPEVQNWQHTVGKDVVANLTQREIDRQEVINELFVTEASHLRTLRVLDLIFYQRMRKENLMPREELARLFPNLPELIEIHNSWCEAMKKLREEGPIIRDISDPMLARFDGPAREELQQVAAQFCSYQSVALELIRTKQRKESRFQLFMQEAESHPQCRRLQLRDLIVSEMQRLTKYPLLLENIIKHTEGGTSEHEKLCRARDQCREILKFVNEAVKQTENRHRLEGYQKRLDATALERASNPLAAEFKSLDLTTRKMIHEGPLTWRISKDKTLDLQVLLLEDLVVLLQRQEERLLLKCHSKTAVGSSDSKQTFSPVLKLNAVLIRSVATDKRAFFIICTSELGPPQIYELVALTSSDKNIWMELLEEAVQNATKHPGAAPIPIHPSPPGSQEPAYQGSTSSRVEINDSEVYHTEKEPKKLPEGPGPEQRVQDKQLIAQGEPVQEEDEEELRTLPRAPPSLDGENRGIRTRDPVLLALTGPLLMEGLADAALEDVENLRHLILWSLLPGHTVKTQAAGEPEDDLTPTPSVVSITSHPWDPGSPGQAPTISDSTRLARPEGSQPEGEDVAVSSLAHLPPRTRSSGVWDSPELDRNPAAEAASTEPAASYKVVRKVSLLPGGGVGAAKVAGSNAIPDSGQSESELSEVEGGAQATGNCFYVSMPAGPLDSSTEPTGTPPSPSQCHSLPAWPTEPQPYRGVRGGQCSSLVRRDVDVIFHTIEQLTIKLHRLKDMELAHRELLKSLGGESSGGTTPVGSFHTEAARWTDYSLSPPAKEALASDSQNGQEQGSCPEEGSDIALEDSATDTAVSPGP
# notes: also called GTRAP48
# Legend:
# [1] = biological target: T1, EAAT4, full-length glutamate transporter; assay: cell-based or functional assay
# [2] = biological target: T2, GTRAP4-41 (glutamate transporter 4 associated protein), full-length (rat, UniProt Q9QWN8 2-2388); assay: co-immunoprecipitation from solubilized rat brain
# T2 construct: Used for native GTRAP4-41 of rat brain and for full-length GTRAP4-41 expressed where no tag is stated (transfected HEK cells, HSV amplicon); also called GTRAP41
# Description: (§1) Immunoprecipitation from cerebellum lysate. Sprague-Dawley (SD) rat cerebellum was dissected, washed with 50 mM Tris-HCl (pH 7.5), 2 mM EDTA and 0.5 mM DTT, and homogenized on ice in buffer containing 20 mM Tris-HCl (pH 7.5), 10% sucrose, 1 mM EDTA, 0.1 mM PMSF, 0.3 mM aprotinin, 1 mM benamidine, 10 mg/ml leupeptine and 10 mg/ml pepstatine. Protein concentration was measured and adjusted to 2–3 mg/ml, and the homogenate was mixed in a 1:1 ratio with the solubilization buffer (homogenization buffer plus 2% Triton X-100). After 2 h, the lysate was spun at 10,000 g for 10 min. For each immunoprecipitation, […] of the Triton-lysate was incubated overnight at 4° C. with 5 μg of the anti-amino-terminal EAAT4 antibody. Immune complexes were precipitated with protein A Sepharose (Pharmacia), washed three times with 10 mM Tris-HCl (pH 7.5) and 5 mM EDTA, eluted with 3×SDS loading buffer, and processed for western blot analysis. The filters were probed with affinity purified rabbit antibodies against GTRAP4-41 and GTRAP4-48.
# (§2) The GTRAP4-41 and GTRAP4-48 interaction with EAAT4 was then studied in vivo using solubilized brain preparations. GTRAP4-41 and GTRAP4-48 are co-immunoprecipitated with EAAT4 from brain by antibodies directed at the amino-terminus of EAAT4 but not by antibodies directed at the carboxy-terminus. However, since the site of interaction is within the carboxy-terminus of EAAT4, it is likely that the carboxy-terminal antibodies disrupt the protein-protein interaction. […] GTRAP4-48 is also not co-immunoprecipitated from brain with antibodies directed at GTRAP4-41.
# [3] = biological target: B1; assay: co-immunoprecipitation from solubilized rat brain
# Description: as §1, §2
# [4] = biological target: T3, myc-tagged full-length GTRAP4-41 (rat, UniProt Q9QWN8 2-2388); assay: in vitro binding assay, bead-linked GST-EAAT4 with solubilized HEK 293T extract
# T3 construct: tested from solubilized cell extract; also called myc-tagged GTRAP4-41; not shown: myc tag of the myc-tagged pRK5 vector
# Description: (§3) GTRAP4-41 and 4-48 Immunoprecipitation with Fusion Proteins. Full-length EAAT4 was subcloned into the EcoR I site of the GST-fusion vector pGEX-6P-1 (Pharmacia). Synthesis of recombinant proteins in BL21 cells (Novagen) was induced by 0.1 mM isopropyl b-D-thiogalactoside for 2 hrs at 30° C. and prepared as a crude bacterial lysate by mild sonication in ice-cold 1 C PBS and solubilization in 1% Triton X-100. Cell debris was removed by centrifugation at 7,000 g and the cleared bacterial lysate applied to glutathione-Sepharose-4B (Pharmacia). […] The cellular lysate was incubated with GST or GST-EAAT4 immobilized on glutathione-Sepharose-4B, and washed to remove non-specifically bound proteins. Specifically bound proteins were eluted with 3×SDS loading buffer and analyzed by immunoblotting using an anti-c-myc antibody. Bands were visualized by HRP-conjugated secondary antibodies and ECL chemiluminescence (Amersham).
# (§4) The biochemical interaction between GTRAP4-41 or GTRAP4-48 and EAAT4 was confirmed using an in vitro binding assay. […] The solubilized cell extracts were then mixed with bead-linked GST-EAAT4 or GST alone and the bound proteins were eluted. GTRAP4-41 and GTRAP4-48 were specifically retained by the GST-EAAT4 fusion protein, but not by GST alone.
# [5] = biological target: T4, myc-tagged full-length GTRAP4-48 (rat, UniProt Q9ES67 1-1527); assay: as above
# T4 construct: tested from solubilized cell extract; also called myc-tagged GTRAP4-48; not shown: myc tag of the myc-tagged pRK5 vector
# Description: as §3, §4
# T2 sequence (Q9QWN8 other isoform, or with tags, fused parts or gaps limits assumed): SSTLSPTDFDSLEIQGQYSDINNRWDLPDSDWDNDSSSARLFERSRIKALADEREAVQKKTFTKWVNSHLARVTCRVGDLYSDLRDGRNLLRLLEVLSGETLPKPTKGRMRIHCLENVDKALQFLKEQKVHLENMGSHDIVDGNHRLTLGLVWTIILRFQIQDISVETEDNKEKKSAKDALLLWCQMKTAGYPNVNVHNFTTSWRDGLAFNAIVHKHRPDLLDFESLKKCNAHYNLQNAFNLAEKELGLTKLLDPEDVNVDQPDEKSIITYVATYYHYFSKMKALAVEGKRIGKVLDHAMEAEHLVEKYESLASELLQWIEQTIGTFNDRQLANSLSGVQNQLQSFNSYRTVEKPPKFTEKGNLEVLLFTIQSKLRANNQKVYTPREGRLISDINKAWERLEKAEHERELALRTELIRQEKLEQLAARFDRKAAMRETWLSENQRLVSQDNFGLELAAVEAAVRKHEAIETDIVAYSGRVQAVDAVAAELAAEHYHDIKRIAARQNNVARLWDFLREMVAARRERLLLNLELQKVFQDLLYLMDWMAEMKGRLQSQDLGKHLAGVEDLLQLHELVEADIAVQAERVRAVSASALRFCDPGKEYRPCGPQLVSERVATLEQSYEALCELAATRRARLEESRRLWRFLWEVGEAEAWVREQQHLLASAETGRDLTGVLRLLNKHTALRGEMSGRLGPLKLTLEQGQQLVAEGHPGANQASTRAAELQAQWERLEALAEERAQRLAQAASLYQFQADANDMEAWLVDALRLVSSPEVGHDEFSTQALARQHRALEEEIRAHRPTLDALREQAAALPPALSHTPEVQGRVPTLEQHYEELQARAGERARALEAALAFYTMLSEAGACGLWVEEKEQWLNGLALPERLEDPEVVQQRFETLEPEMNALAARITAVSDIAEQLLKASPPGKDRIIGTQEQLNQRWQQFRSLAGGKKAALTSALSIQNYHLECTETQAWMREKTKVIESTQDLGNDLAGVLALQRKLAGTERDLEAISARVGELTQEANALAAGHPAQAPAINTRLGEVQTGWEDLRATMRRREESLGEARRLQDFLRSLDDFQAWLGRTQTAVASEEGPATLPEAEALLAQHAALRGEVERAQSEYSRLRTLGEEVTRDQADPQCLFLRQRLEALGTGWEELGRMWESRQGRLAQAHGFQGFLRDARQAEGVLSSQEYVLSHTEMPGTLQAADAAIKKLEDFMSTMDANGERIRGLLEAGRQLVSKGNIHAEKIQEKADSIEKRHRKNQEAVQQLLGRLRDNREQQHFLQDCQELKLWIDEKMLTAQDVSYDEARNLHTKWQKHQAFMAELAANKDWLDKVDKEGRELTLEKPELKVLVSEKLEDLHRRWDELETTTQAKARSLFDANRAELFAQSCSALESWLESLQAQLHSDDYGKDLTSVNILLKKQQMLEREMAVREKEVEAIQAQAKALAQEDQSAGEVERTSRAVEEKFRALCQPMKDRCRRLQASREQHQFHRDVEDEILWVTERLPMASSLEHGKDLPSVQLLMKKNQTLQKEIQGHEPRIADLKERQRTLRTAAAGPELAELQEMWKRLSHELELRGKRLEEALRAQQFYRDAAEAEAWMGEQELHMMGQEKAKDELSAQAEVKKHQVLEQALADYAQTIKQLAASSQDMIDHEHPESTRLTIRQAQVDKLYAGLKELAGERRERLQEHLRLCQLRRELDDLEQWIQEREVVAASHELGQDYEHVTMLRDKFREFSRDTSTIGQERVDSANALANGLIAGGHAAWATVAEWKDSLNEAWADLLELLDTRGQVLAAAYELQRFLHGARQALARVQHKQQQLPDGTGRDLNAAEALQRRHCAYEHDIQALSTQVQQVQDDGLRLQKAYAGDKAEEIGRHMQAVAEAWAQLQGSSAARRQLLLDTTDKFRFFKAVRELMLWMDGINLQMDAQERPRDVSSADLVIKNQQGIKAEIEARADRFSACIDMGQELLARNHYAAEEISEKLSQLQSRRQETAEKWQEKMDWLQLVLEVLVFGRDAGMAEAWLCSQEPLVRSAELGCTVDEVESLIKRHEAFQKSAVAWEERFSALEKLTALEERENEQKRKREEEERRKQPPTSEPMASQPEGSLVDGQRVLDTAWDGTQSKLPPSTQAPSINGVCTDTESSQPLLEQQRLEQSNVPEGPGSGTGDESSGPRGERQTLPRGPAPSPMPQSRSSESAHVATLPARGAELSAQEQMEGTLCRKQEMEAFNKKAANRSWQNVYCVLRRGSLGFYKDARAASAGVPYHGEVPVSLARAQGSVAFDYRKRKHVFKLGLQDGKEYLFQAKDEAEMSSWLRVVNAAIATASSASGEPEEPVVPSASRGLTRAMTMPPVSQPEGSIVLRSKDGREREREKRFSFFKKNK
# T3 sequence (Q9QWN8 other isoform, or with tags, fused parts or gaps): as the sequence (Q9QWN8 other isoform, or with tags, fused parts or gaps limits assumed) above
Binder,Na+-dependent glutamate transport in HEK-rEAAT4 cells [1] [fold],binding result [2],binding result [3],binding result [4],binding result [5]
B1,4,no binding,–,–,–
"GLAST glutamate transporter (other, rat, UniProt P24942 1-543, looked up, whole, on cells; Native protein in solubilized rat brain) MTKSNGEEPRMGSRMERFQQGVRKRTLLAKKKVQNITKEDVKSYLFRNAFVLLTVSAVIVGTILGFALRPYKMSYREVKYFSFPGELLMRMLQMLVLPLIISSLVTGMAALDSKASGKMGMRAVVYYMTTTIIAVVIGIIIVIIIHPGKGTKENMYREGKIVQVTAADAFLDLIRNMFPPNLVEACFKQFKTSYEKRSFKVPIQANETLLGAVINNVSEAMETLTRIREEMVPVPGSVNGVNALGLVVFSMCFGFVIGNMKEQGQALREFFDSLNEAIMRLVAVIMWYAPLGILFLIAGKILEMEDMGVIGGQLAMYTVTVIVGLLIHAVIVLPLLYFLVTRKNPWVFIGGLLQALITALGTSSSSATLPITFKCLEENNGVDKRITRFVLPVGATINMDGTALYEALAAIFIAQVNNFDLNFGQIITISITATAASIGAAGIPQAGLVTMVIVLTSVGLPTDDITLIIAVDWFLDRLRTTTNVLGDSLGAGIVEHLSRHELKNRDVEMGNSVIEENEMKKPYQLIAQDNEPEKPVADSETKM",–,no binding,no binding,–,–
"GLT-1 glutamate transporter (other, rat, UniProt P31596 1-573, looked up, whole, on cells; Native protein in solubilized rat brain) MASTEGANNMPKQVEVRMHDSHLSSEEPKHRNLGMRMCDKLGKNLLLSLTVFGVILGAVCGGLLRLAAPIHPDVVMLIAFPGDILMRMLKMLILPLIISSLITGLSGLDAKASGRLGTRAMVYYMSTTIIAAVLGVILVLAIHPGNPKLKKQLGPGKKNDEVSSLDAFLDLIRNLFPENLVQACFQQIQTVTKKVLVAPPSEEANTTKAVISLLNETMNEAPEETKIVIKKGLEFKDGMNVLGLIGFFIAFGIAMGKMGEQAKLMVEFFNILNEIVMKLVIMIMWYSPLGIACLICGKIIAIKDLEVVARQLGMYMITVIVGLIIHGGIFLPLIYFVVTRKNPFSFFAGIFQAWITALGTASSAGTLPVTFRCLEDNLGIDKRVTRFVLPVGATINMDGTALYEAVAAIFIAQMNGVILDGGQIVTVSLTATLASIGAASIPSAGLVTMLLILTAVGLPTEDISLLVAVDWLLDRMRTSVNVVGDSFGAGIVYHLSKSELDTIDSQHRMHEDIEMTKTQSVYDDTKNHRESNSNQCVYAAHNSVVIDECKVTLAANGKSADCSVEEEPWKREK",–,no binding,no binding,–,–
"GST-EAAT4 fusion protein (full-length EAAT4 in pGEX-6P-1) (other, UniProt O35921 1-561, looked up, mature; Made in BL21 cells, immobilized on glutathione-Sepharose-4B; not shown: glutathione S-transferase of vector pGEX-6P-1 (Pharmacia)) MSSHGNSLFLRESGAGGGCLQGLQDSLQQRALRTRLRLQTMTREHVRRFLRRNAFILLTVSAVIIGVSLAFALRPYQLTYRQIKYFSFPGELLMRMLQMLVLPLIVSSRVTGMASLDNKATGRMGMRAAVYYMVTTVIAVFIGILMVTIIHPGKGSKEGLHREGRIETVPTADAFMDLVRNMFPPNLVEACFKQFKTQYSTRVVTRTIVRTDNGSELGASISPPSSAENETSILENVTRALGTLQEVISFEETVPVPGSANGINALGLVVFSVAFGLVIGGMKHKGRVLRDFFDSLNEAIMRLVGIIIWYAPVGILFLIAGKILEMEDMAVLGGQLGMYTLTVIVGLFLHAGGVLPLIYFLVTHRNPFPFIGGILQALITAMGTSSSSATLPITFRCLEEGLGVDRRITRFVLPVGATVNMDGTALYEALAAIFIAQVNNYELNLGQITTISITATAASVGAAGIPQAGLVTMVIVLTSVGLPTEDITLIIAVDWFLDRLRTMTNVLGDSIGAAVIEHLSQRELELQEAELTLPSLGKPYKSLMAQAKGASRGRGGNESVM",–,–,–,binds,binds
"EAAC1, full-length glutamate transporter (other, rat, UniProt P51907 1-523, looked up, whole, on cells; Used for native EAAC1 of rat brain and for EAAC1 expressed in HEK293, COS-7 and C6 glioma cells) MGKPTSSGCDWRRFLRNHWLLLSTVAAVVLGIVVGVLVRGHSELSNLDKFYFAFPGEILMRMLKLVILPLIISSMITGVAALDSNVSGKIGLRAVVYYFSTTVIAVILGIVLVVSIKPGVTQKVNEINRTGKTPEVSTVDAMLDLIRNMFPENLVQACFQQYKTKREEVKPASDPGGNQTEVSVTTAMTTMSENKTKEYKIVGLYSDGINVLGLIIFCLVFGLVIGKMGEKGQILVDFFNALSDATMKIVQIIMCYMPIGILFLIAGKIIEVEDWEIFRKLGLYMATVLSGLAIHSLVVLPLIYFIVVRKNPFRFALGMAQALLTALMISSSSATLPVTFRCAEEKNHVDKRITRFVLPVGATINMDGTALYEAVAAVFIAQLNGMDLSIGQIITISITATAASIGAAGVPQAGLVTMVIVLSAVGLPAEDVTLIIAVDWLLDRFRTMVNVLGDAFGTGIVEKLSKKELEQVDVSSEVNIVNPFALEPTILDNEDSDTKKSYVNGGFSVDKSDTISFTQTSQF",–,no binding,no binding,–,–
